In the supplement of paper PMC12667976:
± gives the standard error.

B1: library; numbered along this chain (parent)
chain: MATDAALRRLLRLHRTEIAVAVDSAFPLLHALADHDVVPEDKFQETLHLKEKEGCPQAFHALLSWLLTQDSTAILDFWRVLFKDYNLERYGRLQPILDSFPKDVDLSQPRKGRKPPAVPKALVPPPRLPTKRKASEEARAAAPAALTPRGTASPGSQLKAKPPKKPESSAEQQRLPLGNGIQTMSASVQRAVAMSSGDVPGARGAVEGILIQQVFESGGSKKCIQVGGEFYTPSKFEDSGSGKNKARSSSGPKPLVRAKGAQGAAPGGGEARLGQQGSVPAPLALPSDPQLHQKNEDECAVCRDGGELICCDGCPRAFHLACLSPPLREIPSGTWRCSSCLQATVQEVQPRAEEPRPQEPPVETPLPPGLRSAGEEVRGPPGEPLAGMDTTLVYKHLPAPPSAAPLPGLDSSALHPLLCVGPEGQQNLAPGARCGVCGDGTDVLRCTHCAAAFHWRCHFPAGTSRPGTGLRCRSCSGDVTPAPVEGVLAPSPARLAPGPAKDDTASHEPALHRDDLESLLSEHTFDGILQWAIQSMARPAAPFPS

Variants of: B1
Assay: AIRE transcriptional activation functional score (insulin promoter-GFP; nonsense median 0, synonymous median 1) (normalised score); higher = higher AIRE activity (more reporter activation)
Conditions: with insulin promoter-GFP reporter in HEK293
Procedure: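 Deep mutational scan of full-length human AIRE (codon-optimized cDNA, DT-POPCode NNN libraries over three regions) integrated at a Bxb1 landing pad in HEK293 cells carrying an insulin core promoter-GFP reporter at a Flp-In site. Cells were sorted for the top 10% GFP about 14 days after transfection. Variant frequency log-ratios (select vs non-select, TileSeq) were rescaled so that the nonsense median is 0 and the synonymous median is 1, then averaged over biological replicates.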

| Variant | AIRE transcriptional activation functional score |
| --- | --- |
| G435K | 1.2 ± 0.13 |
| H512F | 1.21 ± 0.074 |
| H512T | 0.649 ± 0.32 |
| T463H | 0.813 ± 0.078 |
| P176R | 1.63 ± 0.56 |
| P176K | 1.33 ± 0.44 |
| L488A | 1.27 ± 0.25 |
| L488I | 0.826 ± 0.27 |
| L488V | 1.09 ± 0.29 |
| V192C | 0.889 ± 0.52 |
| M194I | 1.08 ± 0.14 |
| R8P | -0.196 ± 0.54 |
| V301R | 1.34 ± 0.22 |
| T447M | 1.49 ± 0.076 |
| C310K | 0.681 ± 0.21 |
| T390S | 0.817 ± 0.33 |
| T390F | 1.29 ± 0.24 |
| P483T | 1.46 ± 0.12 |
| S411A | 1.04 ± 0.13 |
| R473D | 0.836 ± 0.06 |
| Q276L | 0.779 ± 0.25 |
| G263M | 0.957 ± 0.11 |
| A33K | -0.895 ± 0.42 |
| T46H | 0.478 ± 0.15 |

| Variant | AIRE transcriptional activation functional score |
| --- | --- |
| K114E | 1.46 ± 0.18 |
| L93T | -0.0548 ± 0.35 |
| L285A | 1.37 ± 0.61 |
| L285S | 0.921 ± 0.25 |
| T441D | 0.0827 ± 0.34 |
| T441P | 1.13 ± 0.11 |
| T441V | 0.851 ± 0.17 |
| T441N | 0.751 ± 0.16 |
| E45W | 1.17 ± 0.13 |
| C302V | 0.651 ± 0.089 |
| R465G | 0.791 ± 0.25 |
| T334M | 1.08 ± 0.054 |
| P27K | 0.0588 ± 0.14 |
| P27T | 0.0492 ± 0.53 |
| T344A | 0.851 ± 0.38 |
| M388E | 0.756 ± 0.16 |
| K259D | -0.753 ± 0.084 |
| P365F | 1.36 ± 0.22 |
| K245Q | 0.887 ± 0.36 |
| V188N | 0.669 ± 0.21 |
| G228A | 0.509 ± 0.13 |
| S464D | 0.7 ± 0.34 |
| S464Y | 1.23 ± 0.052 |
| S464H | 1.17 ± 0.17 |

| Variant | AIRE transcriptional activation functional score |
| --- | --- |
| F82T | -0.086 ± 0.55 |
| R12M | 0.457 ± 0.063 |
| A343L | 1.38 ± 0.24 |
| A429H | 1.47 ± 0.041 |
| L511I | 0.739 ± 0.12 |
| L7K | -0.0956 ± 0.16 |
| E485I | 1.1 ± 0.23 |
| S185E | 0.209 ± 0.22 |
| L409M | 1.03 ± 0.035 |
| L409D | 1.21 ± 0.16 |
| L409A | 0.384 ± 0.081 |
| R15D | 0.279 ± 0.29 |
| V279I | 0.721 ± 0.43 |
| S250P | -0.109 ± 0.13 |
| E508M | 0.536 ± 0.14 |
| S535W | 0.301 ± 0.028 |
| A493P | 0.631 ± 0.49 |
| T391E | 0.539 ± 0.13 |
| T391V | 1.16 ± 0.17 |
| T391D | 0.889 ± 0.36 |
| L106S | -1.04 ± 1.1 |
| A140S | 1.02 ± 0.59 |
| A140C | 0.626 ± 0.46 |
| K111Q | -0.0716 ± 0.43 |

| Variant | AIRE transcriptional activation functional score |
| --- | --- |
| Q358M | 1.12 ± 0.088 |
| D526F | 0.421 ± 0.054 |
| G112R | 0.278 ± 0.5 |
| G112N | 0.726 ± 0.29 |
| A160L | 0.749 ± 0.39 |
| R139A | -0.0134 ± 0.85 |
| S476C | 0.608 ± 0.23 |
| Q534C | 1.08 ± 0.42 |
| L66D | -0.102 ± 0.6 |
| R378S | 0.975 ± 0.23 |
| A386M | 1.53 ± 0.057 |
| D514Q | -0.128 ± 0.22 |
| E354C | 1.16 ± 0.063 |
| G218M | 1.01 ± 0.069 |
| R316D | 1.42 ± 0.15 |
| A489I | 0.859 ± 0.35 |
| K133C | 0.0795 ± 0.2 |
| K133S | 0.436 ± 0.32 |
| P509S | 1.16 ± 0.17 |
| E363G | 1.02 ± 0.078 |
| D478T | 0.678 ± 0.31 |
| P95L | 1.38 ± 0.33 |
| L128H | 0.857 ± 0.26 |
| L128T | 1.62 ± 0.54 |

| Variant | AIRE transcriptional activation functional score |
| --- | --- |
| L63F | 0.298 ± 0.27 |
| A144V | 1.1 ± 0.35 |
| G467H | 1.42 ± 0.22 |
| H14S | 0.00226 ± 0.49 |
| L81S | 0.123 ± 0.79 |
| D23L | -0.372 ± 0.55 |
| L341E | 0.957 ± 0.14 |
| L341D | 0.832 ± 0.14 |
| P355K | 1.2 ± 0.11 |
| S234P | 1.19 ± 0.16 |
| Q349F | 0.896 ± 0.13 |
| S241H | 0.567 ± 0.047 |
| P166I | 1.24 ± 0.54 |
| S491T | 0.571 ± 0.31 |
| S491C | 1.29 ± 0.089 |
| C337G | 1.5 ± 0.28 |
| C337R | 1.12 ± 0.25 |
| S169W | 1.57 ± 0.081 |
| S169Q | 0.286 ± 1.9 |
| C340L | 1.13 ± 0.11 |
| A510Y | 0.861 ± 0.11 |
| L291Y | 1.69 ± 0.043 |
| L291G | 1.06 ± 0.14 |
| L291C | 1.01 ± 0.29 |

| Variant | AIRE transcriptional activation functional score |
| --- | --- |
| A58G | -0.107 ± 0.23 |
| V118G | 0.911 ± 0.38 |
| L146R | 0.262 ± 0.57 |
| N86R | -0.161 ± 0.52 |
| A432E | 1.16 ± 0.18 |
| H319E | 1.39 ± 0.026 |
| H319K | 1.15 ± 0.065 |
| L273V | 1.02 ± 0.25 |
| A300Q | 0.413 ± 0.32 |
| A300R | 1.14 ± 0.34 |
| G305Q | 0.0432 ± 0.44 |
| R371D | 1 ± 0.1 |
| S287L | 1.38 ± 0.31 |
| D70C | 0.296 ± 0.14 |
| L11D | 0.606 ± 0.6 |
| L11Y | -0.339 ± 0.4 |
| H35K | -0.196 ± 0.2 |
| E329T | 0.98 ± 0.26 |
| R9C | -0.35 ± 0.18 |
| E359G | 1.02 ± 0.18 |
| G462T | 0.372 ± 0.6 |
| S156K | 0.349 ± 0.15 |
| P109E | 0.161 ± 0.073 |
| P109W | 0.0143 ± 0.096 |

| Variant | AIRE transcriptional activation functional score |
| --- | --- |
| G269N | 0.306 ± 0.089 |
| G269M | 0.571 ± 0.041 |
| W78D | 0.137 ± 0.41 |
| Q346Y | 0.906 ± 0.29 |
| K164R | 1.85 ± 0.55 |
| S99W | -0.319 ± 0.086 |
| P326K | 0.94 ± 0.23 |
| P326V | 1.41 ± 0.25 |
| L28P | 0.00884 ± 0.33 |
| L28R | 0.297 ± 0.54 |
| P126D | 0.773 ± 0.063 |
| L428K | 0.817 ± 0.14 |
| L428Y | 1.05 ± 0.24 |
| G440E | 0.195 ± 0.054 |
| H448N | 1.18 ± 0.2 |
| H448I | 0.59 ± 0.049 |
| H448A | 0.696 ± 0.075 |
| S412C | 0.988 ± 0.22 |
| P143T | 1.49 ± 0.49 |
| P143V | 0.964 ± 0.27 |
| P143A | 1.18 ± 0.61 |
| K42S | 0.172 ± 0.31 |
| Q425R | 0.94 ± 0.15 |
